Data: US20260258115A1

What was measured:
[1] = target: Respiratory Syncytial Virus fusion glycoprotein (RSV F) on RSV-A2 virus (Respiratory Syncytial Virus subtype A (RSV-A2)); test: cell-based or functional assay
[2] = target: RSV prefusion F (preF), DS-Cav1 (Respiratory Syncytial Virus); test: BLI, IgG on anti-human IgG sensor, 100 nM antigen
[3] = target: RSV postfusion F (postF), F deltaFP (Respiratory Syncytial Virus); test: BLI, IgG on anti-human IgG sensor, 100 nM antigen

B1: ADI-41166 (antibody, V domains shown)
VH: EVQLVQSGAEVKKPGASVKVSCKTSGYTFTGDYLHWVRQAPGQGLEWMGRLNPKSGGTVYAQRFQGRVTMTGDTSVTTAYMQLTRLRSDDTAIYYCARGIPVSGPVSIDYWGQGTLVTVSS
VL: QSVLTQPASLSGSPGQSITISCTGTSSDVGGYGYVSWYQQHPGKAPKLMIYDVANRPSGVSHRFSGSKSGNTASLTISGLQADDEADYYCSSYTRSNTVVFGGGTKLTVL
Neutralization IC50 (RSV subtype A) [1]: > 25 µg/mL | Kd [2]: 3.15 nM | Kd [3]: 0.44 nM

B2: ADI-41169 (antibody, V domains shown)
VH: EVQLVESGAEVKKPGESLKISCEAFGYSFTSYWIGWVRQVPGRGLEWIGVIYPGDSDIRYTPSFRGQVTISADRSISTAYLQWNNLKASDTAMYYCARPGRDINYYHSRDYGALDIWGQGTTVTVSS
VL: DIQLTQSPDSLAVSLGERVTINCKSSQSFLYSSNNKNYLAWYQQKPGQPPKLLIYWASVRESGVPDRFSGSGSGTDFTLTISSLQAEDVAVYYCQEYYSPPMFTFGQGTKVEIK
Neutralization IC50 (RSV subtype A) [1]: > 25 µg/mL | Kd [2]: 4.94 nM | Kd [3]: 1.19 nM

B3: ADI-41223 (antibody, V domains shown)
VH: QVQLVESGGGVVQPGRSLRISCAASGFTFSNYGMHWVRQAPGKGLEWVAVLSYDGSNEYYADSVKGRFTISRDNSKNTLYLQMNSLRAEDTAVYYCAKNLNDYNISWYKCFDLWGRGTLVTVSS
VL: QPVLTQPASVSGSPGQSITISCTGTSSDVGGYNYVSWYQHHPGKAPKLIIYDVNNRPSGVSNRFSGSKSGNTASLTISGLQAEDEADYICSSYTTITTFVVFGGGTKLTVL
Neutralization IC50 (RSV subtype A) [1]: > 25 µg/mL | Kd [3]: 1.81 nM

B4: ADI-41155 (antibody, V domains shown)
VH: QVQLQESGPGLVKPSETLSLTCTVSGGSIGNNFYYWGWIRQPPGKGLEWIGSIYYSGTTYDNPSLKSRVTISVEPSKNQFSLKLSSVTAADTAVYHCARRYCDSTRCYEAFDIWGQGTTVTVSS
VL: SYELTQPPSASGTPGQRVTISCSGSSSNIGSNYVSWYQQLPGTAPKLLIYKNDQRPSGVPDRFSGSKSGTSASLAISGLRSEDEAEYYCAAWDDSLSGFYVFGTGTKVTVL
Neutralization IC50 (RSV subtype A) [1]: > 25 µg/mL | Kd [2]: 3.52 nM | Kd [3]: 0.478 nM

B5: ADI-41153 (antibody, V domains shown)
VH: EVQLVESGGGLVKPGGSLRLSCAASQFTFSTYDMSWVRQAPGKGLEWVASISSGSTYIYYADSVKGRFTISRDNAKHSLFLQMKSLRAEDTALYYCARQVLYDRGGYYLYYFDHWGQGTLVTVSS
VL: DIQVTQSPSSLSASVGDRVTITCRASQTIASYLNWYQQKPGKAPNLLIYAASNLQSGVPSRFSGSGSGTEFTLTINTLQPEDFATYYCQQSYNFPYTFGQGTKVEIK
Neutralization IC50 (RSV subtype A) [1]: > 25 µg/mL | Kd [2]: 0.928 nM | Kd [3]: 0.445 nM

B6: ADI-41149 (antibody, V domains shown)
VH: QVQLVQSGGGVVQPGRSLRLSCAASGFTFSDYGMHWVRQAPGKGLEWVAVIWFDGSNKNYADSVKGRFTISRDNSMNTLYLQMNNLRAEDTAVYYCARAPYSFWSGYYLDYWGQGSLVTVSS
VL: DIVMTQSPATLSVSPGERATLSCRASQSISSNLAWYQQKSGQAPRLLIYGASTRATGIPARFSGSGSGTEFTLTISSLQSEDFAVYSCQQYSKWPQTFGQGTKVEIK
Neutralization IC50 (RSV subtype A) [1]: > 25 µg/mL | Kd [2]: 4.34 nM | Kd [3]: 0.857 nM

B7: ADI-41194 (antibody, V domains shown)
VH: QVQLQESGPGLVKPSQMLSLTCTVSGDSISSGDYYWSWIRHHPGKGLEWIGYISYSGSTYNNPSLKSRVTVSVDTSKNQFFLKLTSVTAADTAVYYCARATKPYHSYFYMDVWGKGTTVTVSS
VL: EIVLTQSPGTLSLSPGERATLSCRASQSGSRSYLAWYQQRPGQAPRLLIYGASNRATGIPDRFSGSGSGTDFTLTISRLEPEDFAVYYCQQYGNAPTFGGGTKVDIK
Neutralization IC50 (RSV subtype A) [1]: > 25 µg/mL | Kd [3]: 1.16 nM

B8: ADI-41171 (antibody, V domains shown)
VH: EVQLVESGPGLVKPSQTLSLTCTVSGGSISSGGDYWSWVRQRPGKGLEWIGYIYNSGSGYYNPSLKNRVSMSMHTSRNQFSLRLSSVTAADTAFYYCARDPFYRSGGIHYFDYWGQGALVTVSS
VL: DIVLTQTPGTLSLSPGEGATLSCRASPSVGSTSLAWYQQKPGQAPRLLIYGASSRATGIPDRFSGSGSGTDFTLTISRLEPEDFAVYYCQQDGGLPITFGLGTRLEIK
Neutralization IC50 (RSV subtype A) [1]: > 25 µg/mL | Kd [2]: 9.8 nM | Kd [3]: 4.26 nM

B9: ADI-41163 (antibody, V domains shown)
VH: QVQLVQSGGGVVQPGRSLRLSCAASGFPFHSYAMHWVRQAPGKGLEWVAVIWYEGSEKHYADSVQGRFTISRDNSKNMLYLQMNNLRVADTAVYYCARRGAWGFDIWGQGTTVTVSS
VL: DIVMTQTPLSLPVTPGEPASISCRSSQSVLHSTGYNSLDWYLQKPGQSPQLLIFLGSNRASGVPDRFSGSGSGTDFTLKISRVEAEDVGVYYCMQGLQTPYTFGQGTKVEIK
Neutralization IC50 (RSV subtype A) [1]: > 25 µg/mL | Kd [2]: 4.65 nM | Kd [3]: 0.604 nM

B10: ADI-41160 (antibody, V domains shown)
VH: QVQLVQSGAEVKKPGSSVKVSCKASGGTFSSYPIIWVRQAPGQGLEWMGRIIPILGIASYAQKFQGRVTITADKSTSTAYMELSSLRSEDTAVYYCARNSDFYYGMDVWGQGTTVTVSS
VL: QSALIQPASVSGSPGQSITISCTGTSSDVGGYNYVSWYQHHPGKAPKLMIYDVSNRPSGISNRFSGSKSGNTASLTISGLQAEDEADYYCSSYTSSSLYVFGTGTKVTVL
Neutralization IC50 (RSV subtype A) [1]: > 25 µg/mL | Kd [2]: 2.41 nM | Kd [3]: 0.337 nM

B11: ADI-41144 (antibody, V domains shown)
VH: EVQLVQSGAEVKKPGGSVKVSCKASGYTFSEYYMHWVRQAPGQGPEWVGRINPKSGRTNYAQNFQGRVTMTRDRSISTVYMDLSRLRSDDTAVYYCARWEVMDYGSGIYYNQDHFDYWGQGTLVTVSS
VL: DIRVTQSPSSLSASVGDRVTITCRASQDITNYLAWFQQKPGKAPKSLMYAASTLQSGVPSRFSGSGSGTDFTLTISSLQPEDFATYYCQQYKTYPITFGQGTRLEIK
Neutralization IC50 (RSV subtype A) [1]: 0.37 µg/mL | Kd [2]: 0.94 nM | Kd [3]: 0.759 nM

B12: ADI-41162 (antibody, V domains shown)
VH: EVQLVQSGAEVKKPGSSVKVSCKASGVTGGTFSSYAISWVRQAPGQGLEWMGGIMPMFGTTNYAQKFQGRVTITADKSTSTAYMELSSLRSEDTAVYYCARDYRDFSPHLDYYYMDVWGKGTTVTVSS
VL: DIRLTQSPGTLSLSPGERATLSCRASQSVSTSYLAWYQQKPGQAPRLLIYGASNRATGIPDRFSGSGSGTDFTLTISRLEPEDFAVYYCQQYGRTSWTFGQGTKVDIK
Neutralization IC50 (RSV subtype A) [1]: > 25 µg/mL | Kd [2]: 4.06 nM | Kd [3]: 0.748 nM

B13: ADI-41170 (antibody, V domains shown)
VH: EVQLLESGGGLIQPGGSLRLSCAASGFTFNNYVMSWVRQAPGKGLEWVAAISSSGVSTYYAASVKGRFTISRDNSKNMLYVQLNSLRAEDTAVYYCAKETGSYYYFDSWGQGTLVTVSS
VL: ETTLTQSPSTLSGSVGDRVTITCRASESISSWLAWYQQKPGKAPKLLIYKASNLESGVPSRFSGSGSGTEFTLTISSLQPDDFATYYCQQYNSYLITFGQGTRLEIK
Neutralization IC50 (RSV subtype A) [1]: > 25 µg/mL | Kd [2]: 5.67 nM | Kd [3]: 2.64 nM

B14: ADI-41219 (antibody, V domains shown)
VH: EVQLVESGGGLVQPAGSLRLSCAASGFTFSNYVMNWVRQAPGKGLEWVSYISSSGRTIHYADSVKGRFTISRDNAKNSLYLEMNSLRAEDTAVYYCARDPNYGGNSNRFDSWGQGTLVTVSS
VL: DIVMTQTPSSLSASVGDRVTITCRASQTISNYLNWYQQKPGKAPKLLIFAASSLQSGVPSRFSGSGSGTDFTLTISSLQPEDFATYYCQQSYSAPRVTFGPGTKVDIK
Neutralization IC50 (RSV subtype A) [1]: > 25 µg/mL | Kd [3]: 1.28 nM

B15: ADI-41146 (antibody, V domains shown)
VH: QVQLVQSGAEVKKPGESLKISCKGSGHSFATFWIGWVRQVPGNGLELMGIINLGDSDTKYSPSFQGQVTISADESIGTAYLQWSSLKASDTAMYYCARVSLPHYYYYMDVWGKGTTVTVSS
VL: DIVMTQSPSSVSASVGDRVTITCRASQGISTWLAWYRQKPGKAPELLIYAASRLQSGVPSRFSGSGSGTDFTLTISSLQPEDFATYYCQQANSFLGAFGPGTKLEIK
Neutralization IC50 (RSV subtype A) [1]: > 25 µg/mL | Kd [2]: 4.44 nM | Kd [3]: 0.746 nM

B16: ADI-41154 (antibody, V domains shown)
VH: QVQLQQWGAGLSKPSETLSVTCAVYGGSLSGHYWSWFRQPPGKGLEWIGEIDHSGSTTYNPSLKSRVTISVDTSKNQFSLKLTSVTAADTAMYYCARATRYNYGYTFDYWGQGTLVTVSS
VL: DIPLTQSPSSLSASVGDRVTITCRASQIISSYLNWYQQKPGKAPKLLIYAASTLQSGVPSRFSGSRSGTDFTLTISSLQPEDFASYYCQQSYIIPFTFGPGTKVEIK
Neutralization IC50 (RSV subtype A) [1]: > 25 µg/mL | Kd [2]: 4.63 nM | Kd [3]: 1.35 nM

B17: ADI-41176 (antibody, V domains shown)
VH: EVQLVESGPGLVKPSETLSLTCTVSGGSIGNDYYYWGWIRQPPGKGLEWIGNISYSGSTYYNPSLKSRVTISVGTSKNQFSLKLTSVSAADTAVYHCVGRTFWRDCSSTSCYEYYFDYWGQGTLVTVSS
VL: ETTLTQSPTSLSASVGDRVTITCRASQGISNYLAWYQQKPGKVPKVLIYAASTLQSGVSSRFSGSGSGTGFTLTISNLQPEDVATYYCQNYNSAPWTFGQGTKVEIK
Neutralization IC50 (RSV subtype A) [1]: > 25 µg/mL | Kd [3]: 4.07 nM

B18: ADI-41218 (antibody, V domains shown)
VH: QVQLVQSGAEVKKPGASVKVSCKASGYTFISDGISWVRQAPGQGLEWMGWINPHNENTNYAQKFQGRVTMTTDTSTSTAYLELRGLRSDDTAVYYCARDPYHWSYLDYWGQGTLVTVSS
VL: QSVVTQPPSVSGAPGQRVTITCTGSSSNIGANSDVHWYQQIPGTAPKLLIFGNSNRPSGVPDRFSGSKSGTSASLAITGLQAEDEADYYCQSYDRSLSGSRVFGGGTRLTVL
Neutralization IC50 (RSV subtype A) [1]: > 25 µg/mL | Kd [3]: 0.729 nM

B19: ADI-41161 (antibody, V domains shown)
VH: EVQLVESGGGLVQPGGSLRLSCAASGFTFSTFEFNWVRQAPGKGLEWLSYISSDDTTRYYADSVKGRFTISRDNAKNSLYLQMNSLRAEDTAYYYCVRGGPYDYVWGTYRYFDFWGQGTLVTVSS
VL: QSVLTQPASVSGSPGQSITISCTGTSSDIGGYNYVSWYQQHPGKAPKLMIYDVTNRPLGVSNRFSGSKSGNTASLIISGLQAEDEAEYYCCSYTSSNSLVFGGGTKLTVL
Neutralization IC50 (RSV subtype A) [1]: > 25 µg/mL | Kd [2]: 2.54 nM | Kd [3]: 0.364 nM
